B1: Azoarcus group I ribozyme (parent)
chain: GUGCCUUGCGCCGGGAAACCACGCAAGGGAUGGUGUCAAAUUCGGCGAAACCUAAGCGCCCGCCCGGGCGUAUGGCAACGCCGAGCCAAGCUUCGGCGCCUGCGCCGAUGAAGGUGUAGAGACUAGACGGCACCCACCUAAGGCAAACGCUAUGGUGAAGGCAUAGUCCAGGGAGUGGCGAAAGUCACACAAACCGG

In the data set the parent is B1. Kind of data set: reverse-splicing fitness (ratio to wild type); higher = more active; in vitro selection; Mg2+ level not given. The method in brief:
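An in vitro group I ribozyme library with randomized positions was T7-transcribed and gel-purified. In triplicate, 10 pmol RNA in EPPS pH 7.5 was reacted with 50 pmoles of a 30-nt RNA substrate for 1 h at 37 °C across several added MgCl2 levels (1–48 mM), then stopped with EDTA. Products were reverse transcribed from a substrate-complementary primer, PCR-amplified and sequenced (HiSeq 4000). Fitness is a variant's read proportion after selection over that before, normalised to wild type.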
As for A120U A145G C150U C169U U176C, the reverse-splicing fitness was 0.108.
Take A145C C150U C169U: the reverse-splicing fitness came to 0.122.
Take A145C C150U C169A: the reverse-splicing fitness was determined as 0.0428.
In the case of A145C C150U C169G, the reverse-splicing fitness amounted to 0.0825.
As to A120U C150U C169U U176C, the reverse-splicing fitness came out at 0.083.
Take A120U C150U C169U U176G: the reverse-splicing fitness stood at 0.00872.
Next, A120U C150U C169U U176A: 0.0605.
Regarding A145C C150A C169A U176A, the reverse-splicing fitness was found to be 0.0107.
Turning to A145C C150A C169A U176G, the reverse-splicing fitness amounted to 0.00533.
A145C C150A C169A U176C: the reverse-splicing fitness came out at 0.00805.
The result for A120U A145C C150U U176A reads 0.328; that for A120U A145C C150U U176C, 0.222; that for A120U A145C C150U U176G, 0.167.
In the case of A120U A145U C169U U176G, the reverse-splicing fitness amounted to 0.0134.
Take A120U A145U C169U U176A: the reverse-splicing fitness was determined as 0.0858.
On to A120U A145U C169U U176C, for which the reverse-splicing fitness was 0.133.
In the case of A145C C150U C169A U176C, the reverse-splicing fitness was 0.0196.
For A145C C150U C169A U176A, the reverse-splicing fitness stood at 0.0158.
In the case of A145C C150U C169A U176G, the reverse-splicing fitness was 0.00607.
Next, A145G C150A C169A U176A: 0.0203; A145G C150A C169A U176C: 0.031; A145G C150A C169A U176G: 0.00608.
On to A120U A145U C150G U176G, for which the reverse-splicing fitness stood at 0.018.
On to A120U A145U C150G U176A, for which the reverse-splicing fitness came to 0.122.
Next, A120U A145U C150G U176C: 0.148.
The result for A120U A145U C150G C169U U176C reads 0.0175; that for A120U A145U C150G C169U U176A, 0.00679.
In the case of A120U A145U C150G C169U U176G, the reverse-splicing fitness came out at 0.00288.
Consider A120U A145U C150U C169U U176C, for which the reverse-splicing fitness was 0.0952.
The result for A120U A145U C150U C169U U176A reads 0.059.
Take A120U A145U C150U C169U U176G: the reverse-splicing fitness stood at 0.00903.
Next, A145G C150A U176C: 0.464; A145G C150A U176G: 0.184; A145G C150A U176A: 0.472.
Next, A145G C150U C169A: 0.136; A120U A145C C169G: 0.231.
As for A120U A145C C169U, the reverse-splicing fitness worked out at 0.263.
A120U A145C C169A: the reverse-splicing fitness was 0.0147.
As for A120U A145U C150A U176A, the reverse-splicing fitness came out at 0.151.
For the variant A120U A145U C150A U176C, the reverse-splicing fitness came to 0.141.
With A120U A145U C150A U176G, the reverse-splicing fitness was 0.0665.
Turning to A145C C150G C169G U176G, the reverse-splicing fitness is 0.00537.
In the case of A145C C150G C169G U176A, the reverse-splicing fitness is 0.0135.
Next, A145C C150G C169G U176C: 0.00959; A145C C150A C169G U176C: 0.0203.
As for A145C C150A C169G U176A, the reverse-splicing fitness was 0.0271.
With A145C C150A C169G U176G, the reverse-splicing fitness amounted to 0.00531.
For A120U A145C C150U C169G U176G, the reverse-splicing fitness is 0.00233.
The result for A120U A145C C150U C169G U176C reads 0.0135.
A120U A145C C150U C169G U176A: the reverse-splicing fitness was determined as 0.0156.
A145C: the reverse-splicing fitness worked out at 0.95.
As to A145G, the reverse-splicing fitness was found to be 0.958.
The result for A145G C150A C169G U176C reads 0.0517; that for A145G C150A C169G U176A, 0.0321.
As to A145G C150A C169G U176G, the reverse-splicing fitness stood at 0.00527.
The result for A145C C150G U176G reads 0.114.
With A145C C150G U176A, the reverse-splicing fitness was found to be 0.364.
On to A145C C150G U176C, for which the reverse-splicing fitness worked out at 0.388.
In the case of A120U A145G C150A C169U, the reverse-splicing fitness turned out to be 0.0612.
As for A120U A145G C150A C169A, the reverse-splicing fitness was found to be 0.00622.
The result for A120U A145G C150A C169G reads 0.0459.
For A120U A145G C150U C169G, the reverse-splicing fitness was determined as 0.199.
On to A120U A145G C150U C169A, for which the reverse-splicing fitness amounted to 0.0163.
In the case of A120U A145G C150U C169U, the reverse-splicing fitness was found to be 0.256.
As to A145C C169U U176G, the reverse-splicing fitness came to 0.0117.
Next, A145C C169U U176A: 0.106; A145C C169U U176C: 0.156.
With A120U A145C C150U C169A U176G, the reverse-splicing fitness was found to be 0.00156.
Next, A120U A145C C150U C169A U176C: 0.00274; A120U A145C C150U C169A U176A: 0.00179.
Next, A120U A145C U176A: 0.634; A120U A145C U176C: 0.452.
Next, A120U A145C U176G: 0.36.
On to A120U A145U C150G C169G U176G, for which the reverse-splicing fitness was determined as 0.00208.
With A120U A145U C150G C169G U176A, the reverse-splicing fitness amounted to 0.00507.
Turning to A120U A145U C150G C169G U176C, the reverse-splicing fitness was found to be 0.00304.
Regarding A120U A145U C150U C169A U176G, the reverse-splicing fitness came to 0.00234.
Consider A120U A145U C150U C169A U176C, for which the reverse-splicing fitness was 0.00496.
Regarding A120U A145U C150U C169A U176A, the reverse-splicing fitness is 0.00335.
On to A120U A145U C150U C169U, for which the reverse-splicing fitness came to 0.197.
Consider A120U A145U C150U C169A, for which the reverse-splicing fitness was 0.0103.
For A120U A145U C150U C169G, the reverse-splicing fitness came to 0.166.
As to A145C C169G, the reverse-splicing fitness was 0.26.
For the variant A145C C169A, the reverse-splicing fitness amounted to 0.167.

These data come from the RNAGym collection of RNA variant scans (doi:10.1093/molbev/msab373).
